Data from the supplement of paper PMC10126150.
± gives the standard deviation of the averaged measurements.

Each sequence was assayed on ATP (assay: switch fluorescence ratio, 500 uM ATP over buffer (Cy3 cluster intensity, sum of 5 cycles each) (fold (ratio)); higher = stronger signal-on switching upon ATP binding; sequences stand for … in TCGTCGGCAGCGTCAGATGTGTATAAGAGACAGTTTTTTTTTTTTTTTTTTTTTTTTT…TC). Conditions: aptamer strand: ATP DNA aptamer (quencher-CACCTGGGGGAGTATTGCGGAGGAAGG + anchor), 100 nM annealed; ATP concentration: 500 uM.
In short: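 Clusters carrying Cy3-labelled switching strands on a modified Illumina MiSeq flow-cell were annealed to 100 nM quencher-labelled ATP aptamer and imaged in selection buffer. They were imaged again after 15 min with 500 uM ATP at 22 °C, over five buffer/ATP cycles with NaOH stripping and re-annealing in between. For each cluster, the fluorescence ratio is the summed Cy3 intensity of the target cycles divided by that of the buffer cycles, averaged per switch-domain sequence. Clusters outside 100-1000 RFU were left out.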
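Also: ATP exposure 15 min at 22 °C before imaging.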

Sequence | switch fluorescence ratio
GCAGCCGAGT | 1.013 ± 0.0098
GCAGGAATTC | 1.05 ± 0.042
GCAGGACGGG | 1.4 ± 0.64
GCAGGAGGGG | 0.965 ± 0.074
GCAGGGATAC | 3.4 ± 0.048
GCAGGGATGA | 0.994 ± 0.0052
GCAGGGGCTG | 1.02 ± 0.016
GCAGGGGGCG | 1.04 ± 0.051
GCAGGGGGGC | 1.03 ± 0.035
GCAGGGTAGC | 1.04 ± 0.012
GCAGGGTGGG | 1.02 ± 0.028
GCAGGTCAAT | 1.03 ± 0.018
GCAGGTCGCG | 1.01 ± 0.024
GCAGGTTGAC | 1.034 ± 0.003
GCAGGTTGAG | 1.01 ± 0.044
GCAGGTTGGC | 0.992 ± 0.029
GCAGTACTTT | 1.5 ± 0.12
GCAGTAGCAA | 1.08 ± 0.03
GCAGTATAGC | 0.99 ± 0.011
GCAGTATGGG | 1 ± 0.028
GCAGTATTCC | 1.66 ± 0.11
GCAGTCCCGT | 1.03 ± 0.015
GCAGTTAGTT | 1.01 ± 0.033
GCAGTTGGAA | 1.058 ± 0.0089
GCATAAGGGT | 1.01 ± 0.038

Sequence | switch fluorescence ratio
GCATATCCGG | 1.02 ± 0.011
GCATATGATC | 1.05 ± 0.021
GCATATTTTG | 0.994 ± 0.029
GCATCAATGG | 1.06 ± 0.014
GCATCATTCA | 1.03 ± 0.017
GCATCATTTA | 1.009 ± 0.0059
GCATCCTGGA | 0.969 ± 0.058
GCATGAACAT | 0.98 ± 0.026
GCATGAGAGG | 0.987 ± 0.021
GCATGAGGGT | 1.03 ± 0.072
GCATGCGGGA | 1.02 ± 0.074
GCATGGAAGA | 0.992 ± 0.015
GCATGGCTGG | 1.017 ± 0.00012
GCATGGGCTG | 1.04 ± 0.019
GCATGGGGCG | 1.037 ± 0.0041
GCATGGGGTG | 1.069 ± 0.0081
GCATGGGGTT | 0.998 ± 0.031
GCATGTGTAT | 1.01 ± 0.031
GCATTAAAGT | 0.958 ± 0.033
GCATTAAGAA | 1.01 ± 0.018
GCATTAAGGA | 1.058 ± 0.008
GCATTACTTG | 1.16 ± 0.027
GCATTAGGGA | 0.989 ± 0.024
GCATTCCGAA | 1.22 ± 0.028
GCATTGAGTG | 0.978 ± 0.03

Sequence | switch fluorescence ratio
GCATTGGCGG | 0.993 ± 0.044
GCATTGGGGG | 0.995 ± 0.041
GCATTTGAAA | 0.978 ± 0.011
GCATTTGCTG | 0.9719 ± 0.0044
GCATTTGGCC | 0.999 ± 0.012
GCATTTTCTG | 1.02 ± 0.026
GCCAAAACCT | 2 ± 0.76
GCCAAATTTT | 0.955 ± 0.035
GCCAACCACT | 1.03 ± 0.025
GCCAATACCA | 1.22 ± 0.013
GCCAATAGTT | 1.046 ± 0.0073
GCCAATGGTT | 1.08 ± 0.16
GCCAATGTGG | 1 ± 0.051
GCCACAGTCG | 1.01 ± 0.022
GCCACATTTT | 0.945 ± 0.01
GCCACCGTTT | 1.06 ± 0.021
GCCAGCAGCT | 0.967 ± 0.014
GCCAGCCGTT | 1.014 ± 0.0038
GCCAGGGCTG | 1 ± 0.024
GCCAGGGCTT | 1.03 ± 0.036
GCCAGTATGT | 1.08 ± 0.086
GCCATCACGC | 0.9836 ± 0.006
GCCATCATGC | 0.97 ± 0.0073
GCCATCGTCG | 1.01 ± 0.044
GCCATGCGTC | 1.01 ± 0.026

Sequence | switch fluorescence ratio
GCCATGGGCA | 1.002 ± 0.0053
GCCATGTTTT | 0.9646 ± 0.008
GCCATTAAGA | 1.01 ± 0.011
GCCATTCATC | 1.02 ± 0.017
GCCCAAGAGT | 1.04 ± 0.02
GCCCCACCTG | 1.05 ± 0.029
GCCCCAGGGG | 4.81 ± 0.36
GCCCGAGCAG | 1.22 ± 0.062
GCCCGCTTCG | 1.03 ± 0.024
GCCCGGAGCG | 1.68 ± 0.13
GCCCGTTTCG | 0.9989 ± 0.0082
GCCCTCCTGC | 1.16 ± 0.078
GCCCTCTCGA | 1.018 ± 0.0079
GCCCTGGGGA | 2.74 ± 2.4
GCCGAAAGGA | 1.04 ± 0.039
GCCGAAATGT | 1.06 ± 0.097
GCCGCAGACA | 1.39 ± 0.1
GCCGCAGGGG | 2.61 ± 1.3
GCCGCATTTG | 1.147 ± 0.011
GCCGCCTTTT | 1.023 ± 0.0016
GCCGCGGGAG | 1.096 ± 0.0063
GCCGCTTGCA | 0.9973 ± 0.0053
GCCGGAAAAC | 2.35 ± 0.2
GCCGGACTTT | 1.01 ± 0.012
GCCGGAGGGG | 1.26 ± 0.39
